Results taken from publication PMC6120219.

Target: T1, human TRAP1 (TNF receptor-associated protein 1), full-length WT without mitochondrial signal sequence (human) (UniProt Q12931)
T1 sequence: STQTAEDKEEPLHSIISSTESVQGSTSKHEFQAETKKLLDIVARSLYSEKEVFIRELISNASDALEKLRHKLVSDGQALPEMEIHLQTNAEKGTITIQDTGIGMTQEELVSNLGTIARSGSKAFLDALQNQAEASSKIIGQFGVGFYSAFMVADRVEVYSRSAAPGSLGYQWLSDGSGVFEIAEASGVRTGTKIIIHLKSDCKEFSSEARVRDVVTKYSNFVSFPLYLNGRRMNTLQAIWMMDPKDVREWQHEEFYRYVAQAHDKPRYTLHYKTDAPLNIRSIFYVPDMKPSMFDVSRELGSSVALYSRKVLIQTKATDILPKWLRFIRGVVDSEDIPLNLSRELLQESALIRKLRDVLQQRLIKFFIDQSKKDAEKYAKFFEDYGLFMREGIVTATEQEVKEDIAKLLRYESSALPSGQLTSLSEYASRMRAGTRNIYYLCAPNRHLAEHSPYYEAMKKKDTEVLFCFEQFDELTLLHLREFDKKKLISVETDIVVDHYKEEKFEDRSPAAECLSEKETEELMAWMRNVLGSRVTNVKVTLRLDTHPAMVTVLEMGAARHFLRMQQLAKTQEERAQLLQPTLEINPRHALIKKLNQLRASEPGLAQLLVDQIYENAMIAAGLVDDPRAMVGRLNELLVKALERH

- Vmax of ATPase activity of the WT:D158N heterodimer mixture, ATP titration with CaCl2 (μM ATP min^−1/μM ATPase): 2.31
- Vmax of ATPase activity of the WT:D158N heterodimer mixture, ATP titration with MgCl2 (μM ATP min^−1/μM ATPase): 3.77
B1: human TRAP1 D158N point mutant (natural protein)
chain: STQTAEDKEEPLHSIISSTESVQGSTSKHEFQAETKKLLDIVARSLYSEKEVFIRELISNASDALEKLRHKLVSDGQALPEMEIHLQTNAEKGTITIQNTGIGMTQEELVSNLGTIARSGSKAFLDALQNQAEASSKIIGQFGVGFYSAFMVADRVEVYSRSAAPGSLGYQWLSDGSGVFEIAEASGVRTGTKIIIHLKSDCKEFSSEARVRDVVTKYSNFVSFPLYLNGRRMNTLQAIWMMDPKDVREWQHEEFYRYVAQAHDKPRYTLHYKTDAPLNIRSIFYVPDMKPSMFDVSRELGSSVALYSRKVLIQTKATDILPKWLRFIRGVVDSEDIPLNLSRELLQESALIRKLRDVLQQRLIKFFIDQSKKDAEKYAKFFEDYGLFMREGIVTATEQEVKEDIAKLLRYESSALPSGQLTSLSEYASRMRAGTRNIYYLCAPNRHLAEHSPYYEAMKKKDTEVLFCFEQFDELTLLHLREFDKKKLISVETDIVVDHYKEEKFEDRSPAAECLSEKETEELMAWMRNVLGSRVTNVKVTLRLDTHPAMVTVLEMGAARHFLRMQQLAKTQEERAQLLQPTLEINPRHALIKKLNQLRASEPGLAQLLVDQIYENAMIAAGLVDDPRAMVGRLNELLVKALERH
